Results reported in the DeepSol protein solubility set.

experiment: soluble on expression in E. coli; label from the status in PepcDB or PDB records

Sequence | soluble on expression in E. coli
MAHHHHHHMSDDDDKIYIYSDLFSKNFSDDEKDDSYEREKQVYSGSETQNAENEYSKLRAQNSTILNNYFDNDNIKNVENLKSNDPDQIDLILFPVNKNYYMNLFDGQLIENIHSIKLRKAGFYAIYVENNNNSKWDGIYFGLSRMQVELDYKLITKKNKDGGEYEKRNTSSYDNTESVQNTVGSEKEETENKNEETSNYNSNLNNEINKICKYNLDQTDILLDDSNSERRRNSKFKIKNTNYYDNLMLQNKYTNSILYDDDDDKNNTETYTCTFKTEDQIRVPSQKKKYIYLYNKYDNATLDLNVHTYMSLGMSILCKYSLLYCGKYNHIPRDPYTPFKKPVSILSLDGGGILTISTLLVLNRLEAELRKEIGSDDIKLIDCFDMVCGTSAGGLISLALLREIDLQDVSNMWPSTIKKVFEGNRNIISGIFFEGYDVNNVKDVFLERMGNKFMSSYKKFYCFVTATDVKHKPYKLFLIRNYTHKYNSINAESYDGINKVPLWLAAWATASAPTYLKGPSAEDIKKLGINIKPEIHLVDGALKASNPALIALEECARLNNKNLSTFIKEDLDTLVSIGTGQVPTKLTQSGASSKSASTFEILINSTHLLTRANDTHREVLQRLADRENTYFRFNVPHIGDIEIDSQDVRDFDLISKATQDYLFDEKFYEIKRLAHKLANNYIRSKYL | not soluble
MAHHHHHHMSEREHDETPVTAEGSAAAHEGSNMDLNGNESRASYIKTDLGELNMIESMCPKCQETGTTRLMITSIPHFKEIIVSSFECQHCGEVNNEVAFGGTFGPKRVRYELQVRSKQDLDRQVVKSEFATIAIPELELEIPPESQKGNLNTIEGVLEQTYSGLQLQQPLRKIQHPDVYEKIEAFCAKLASFRSGDVPFTLTLDDPAGNSYIEPIHDYYHPTLDPQLTKYEKERTEIDRQLLGIALDYNTERTQEEEKDVEEGQFSDVTQILCDCPACRRPGYIMMHECDIPYFKQTIIMAFKCEYCGYKSNEIKAGGEINAKGLRLVLHVTSEADLKRDVLKSDTATLIIPEVRLELAPGTLGGFFSTVEGTITQVRDQLMNLPQAAFAAGDSADDNSKTMLEFVKELDELLALREEFTFILDDPLGNVYIQNPCSHLPPPDDVDPKLEREEYTRTEEQDEELGILSMRHNEGQAGIEKSEDEADHEGEERNGAAAEEQETQQ | soluble
MAHHHHHHMSFKEMRLAFEGSKNIYESSLLTFKGVDGYDVYNCSLLFQYKGKHHLFGRFERREKSSDSRVRLFVETGKDEYTVVPDQLTYQLEDPFVSKVQGSLFFGGTQVIKSGGNVTGYFCDFYHGMPQLLTYYTTGPDLMRSIRIVQLADGTIGIFSCHKTEGSCLIGFTTVNSLNEVTREVIAEAKPINNAPFLGAWGGVNQAYLLSSGNIGCICHHGYLDKDANGEQRNVCCITSFVYDPKRNNTHTFQLIGTRGCFPDCPSKSPSVADCAFASGIVMREDGKCDLYSGLGDTHEGRITIDYPFKGYGTVVNDLVF | soluble
MAHHHHHHMSGENIKNLLAPQPTVDQGPYSGKYEKRMVDLPKPTYSTFYNKNKEFDSTHPRYFKQRDAVIGPIVNDTVDPKNFLRTGQGIKHIVPPVPHKKQHRKDFLDCGDIRKRTQGAMEPADQQQKESSGMGGMGSLANTNGVGGQAGDGIREHDMSSNDPERKGEQANGGDTGLRGTGNVESAVGSCDNKNNFQGAATGDNGRCHLNSLDRSRCKKDFVTSNIIDVDNMVPKRRKDQPEDPTRRKTFGRVPGYIGRVKEVIEKERMQLKAIGEARTNNRLERVGKFVYRLDEQERLNMISKLRAKLTEKGAELNRMPFAKDTYIQMKRKSDLEKRIKEIESSLEKLEKDAVFIYSDDPRVVHWTKDAAFEEARLFASD | not soluble
MAHHHHHHMSILCTISGQTPEEPVVSKTGYVFEKRLIEKHILNYGICPVSGEVLTLQDLYPLKNEQVVKPRPITASSIPGLLSILQTEWDAIISEMFTLRTHVNDIRNQLTHSLYQYDAATRVIAKLLKEKNDYKEEVKKLRNQILSIKSGNDLNEFEVGLSEDLLNEMQEVAKNLLMTRKKRNIEHVSSAEQWKEVTNTNEFDVHSAAIPGVTCLSLDINELKYSYYDDHKNHSFFSGGMDGNVYYVSLEQSKVLAKLQGHLKKVTAIVAHPKYSLCISGANDKTVRIWKGDVETNEFATAHVIAKHKDQITSLALHPMENYFVSSSKDNVWILNDLETSRSIKICKDTPSPFRQLAIHPDGIMLGIGCEDSNIHIFDMKSQEYKASLSGHTSHVSYISFSENGYYLASCSKDKTVKLWDLRKAQCFQTIDVEELPRSICFDFSGKYLSLAAGNDVHVFNFEAKTKAVLVNTLSAHTDAVTQTCFGSRTAYLLSSSMDKTVKVWS | not soluble
MAHHHHHHMSKKERYKIWKRIPKCELHCHLDLCFSADFFVSCIRKYNLQPNLSDEEVLDYYLFAKGGKSLGEFVEKAIKVADIFHDYEVIEDLAKHAVFNKYKEGVVLMEFRYSPTFVAFKYNLDIELIHQAIVKGIKEVVELLDHKIHVALMCIGDTGHEAANIKASADFCLKHKADFVGFDHGGHEVDLKEYKEIFDYVRESGVPLSVHAGEDVTLPNLNTLYSAIQVLKVERIGHGIRVAESQELIDMVKEKNILLEVCPISNVLLKNAKSMDTHPIRQLYDAGVKVSVNSDDPGMFLTNINDDYEELYTHLNFTLEDFMKMNEWALEKSFMDSNIKDKIKNLYF | not soluble
MAHHHHHHMSLNAADAADERSRKEMDRFQVERMAGQGTFGTVQLGKEKSTGMSVAIKKVIQDPRFRNRELQIMQDLAVLHHPNIVQLQSYFYTLGERDRRDIYLNVVMEYVPDTLHRCCRNYYRRQVAPPPILIKVFLFQLIRSIGCLHLPSVNVCHRDIKPHNVLVNEADGTLKLCDFGSAKKLSPSEPNVAYICSRYYRAPELIFGNQHYTTSVDIWSVGCIFAEMMLGEPIFRGDNSAGQLHEIVRVLGCPSREVLRKLNPSHTDVDLYNSKGIPWSSVFCDHSLKDAKEAYDLLSALLQYLPEDRMKPYEALCHPYFDELHDSATKLPNNKDLPEDLFRFLPSEIEVMSEAQKAKLVRK | not soluble
MAHHHHHHMSLPRRMCMFATCQSNRKSCSMRQSSVTSEGYRYSSTFAAGRLFDAVYVINLDRRPDRWEFATQQLSRAGFLHEEYVRFPAVDGRNVDLQKAHACGLISRLGLLRLQEPEHRRIWGMDLNPGAVGCALSHALLWAQIAASRHRSVLVVEDDSLFPQDFHHKYEARAKQVPSDWELLYVSGLDTAGQAPQLRVAEGVCRVPQMHRTTNCYVVSHRGARLLLDACFPVTYQLDTMMTLRTAGDGAGGVPYVTVPNCYTLQPPLVVQATRMGSDIQSASGGVCDRDEVEEERARCRAAGWEVQETGTLVP | not soluble
MAHHHHHHMSRKRVRAEDIHYWLLKSEPHKFSIDDLAKQKTSPWDGVRNYAARNNMRAMSVGDKVLFYHSNTKEPGVAGLAEVVRLAYDDFTALDKTSEYFDPKATKEKNPWKMVDVKFVARWDTVLTLHELKSRRELQKMALFTQRRLSVQPVSASEYAYILRMNEEQQRK | soluble
MAHHHHHHMSSKRTEGTAADEERRRTSAASSGSSSVSSTDSDEASSSVSDSSSSGSGSSSDSESSDSERPSSTPQRQSAAAAERATSTQQLQQQRHVQLNPELRFERPDKEYIPLPPLRDMQDMVKVLFLLSTDKKRYPDGRHRTLDYFRVAVEMFVTEVRQEYKRQYQQAQRNGRAMQRFTWKNSGELAICFACCCDNVKLLYDSLQPGPLKPLWDAFVGQLPPMLIVQSRVPETMLSSQTYHTKYMDWVKGGTRYGGEQSTANVRFPSVADRRVKVETYLRSGAGYKIEAVQVGSTPAAPAAVPAAVAPRPSLAAAAAPMQALETRAPFAGRLPGTGSAKVPVAPGVGGPRPPVKVPMKHVGGGVAHGSVTTAAAPPLASTSVKQMPPEMKHLFWLSVLAHVKGGEASRAFPDDRLEALPGLLRLCEMTEHTEEMCILMDVLAASSSGVQTVFERLGGLLSFRRFASHFIQSEEAEPLMQLVEQLARWRVAAWGSTSQQAWQTDMNQRRTRDLMWLRTLPLIPEAKRAAWGALLLVMEQRYIFKAPRPDDTTAVDNPLKRRRSEVELGDLHAVLSDNVDMQRWVVPRVNVFSAVRLPVELRVPPLCTKLEENTVRFLNAKREYAEKMQVTWRERLEKILSAQPRAPGPAVPVPLWYDPYALLRVASPQP | soluble
MAHHHHHHMSSPQVVCEAKKAFEANKRVYESVLLTFKGVDGYDVYNCSVPFSYKGKTHIYGRVEKRDIWAASHVRLFEETGKDEFTAVPDGMTWLLEDPFVSSVKGEALFGGTRIRKVSNRLLSYYCDFFRGGIEQGLYFTTGPDNMKDIRCVELANGSIGVFSRPKTDVYTCIGFTIIDDLSELTQKVINEAEPLNVLHPGAWGGVNQAYLLTSGKVGCIAHYSYNSKDDKDCPTSVYLNYSFVLDPETKQAEMERIIGTRSCYPDYPVKAERLIDCAFSSGIVMREDGKCDLYSGLGDTCEGRIAIDYPFEGYGAVVDQLSF | soluble
MAHHHHHHMSSTASPNAALLAEINDLKVKLAEKEALLQPEGVVSKKSKKKSQANMIEKEPVQGCRDFPPEDMRVRRHLFGVFHETARKFGFEEYDAPVLESEELYIRKAGEEITDQMFNFVTKGGHRVTLRPEMTPSLVRLQLAKGRSLLLPAKWYSIPQCWRYEAISRGRRREHYQWNMDIVGVKSVAAEVELVCAACAAMESLGLTAQDVGVKVNSRKLLQCALAGAGVPDSLFAPVCVIVDKMEKLPEEQIRAELEDLALDGQQADDIIRTLSLRSVDDFDKNLFDKNGALSELAEFFSQMQMYGYGDWIQFDASVVRGLAYYTGIVFEAFDRSGEFRAIYGGGRYDNLFTLYGSPQPISCVGFGFGDCVIIELLKKKKLINSLPHKVDDVVIPFNESQRGTALKVLKQLRDKGRSADIIMDSKKVAQTFSYADRIGADRAVLIAPDETEKGMARVKMLREGQRGEDDRGDLVPFEDL | soluble
MAHHHHHHMSTSLRHTALHAFHVGRRARMAPFSGYDMPINYAAGAVREHLHTREAASIFDVSHFGVVEVFGADREKFLEWLTPSAPSRMPSGKAALTMFLNDRAGVKDDCIVTRYDDRLVVVVNAGCKDKMIAYMRQSVADFTGDVALEMEDRAIVTVQGPKAASALAPHVEDLDKLLFMQGRQDVDIRGMRIKTLTRCSYSGEDGFDIVMREEDALPIVELLLQNPDVQAAGLAARDTLRTEAGLNLYSHELSEDIDPVAARCMWCVPKHRMTEGGFVGHERLAQLVKKAKELVPRVRVGILAAPERGPIPRNGTPVLVEGKCVGVVTSGVPSPTLGRNIALGYVDRSYSNIGQQVGLDVRGKLVKAEIVNSRFVAPRYYRG | not soluble
MAHHHHHHMTATPEMAEYCLRVIAQQISAPDDPSVPLPVIPKEDSACFVTLTTLPQERLRGCIGSLQPGDLKKDMRRLALAAAFQDSRFPKVKEEELPTLRCCFSLLHTFEPCAAWNDWEIGKHGLIADYDGYSATYLPSVAEEQGWDHRETLVSLLEKAGFEKPVTDHVLGKVRLTRYQVSKALKDYKDIIAS | not soluble
MAHHHHHHMTGVASLHRESERSKRKSSGGERNADEADTEGTAGARNAHAKQKQKTVRQGVAVCVWCCGCLPALTARKQNKRERNVCSAPQALVARPHVTAPSARRSSRPLLMRAAGEAHRAVVMSVSVGVRVEQLGGKHTAPLTGRVQKKQLKEGRVEKKRTSTVIAPESKKEKGW | not soluble
MAHHHHHHMTIRVAINGYGRIGRNTLRAFYENGKKHDLEIVAINDLGDAKTNAHLTQYDTAHGKFPGEVSVDGDYLVVNGDRIRVLANRNPAELPWGELGVDVVMECTGFFTSKEKASAHLKGGAKKVIISAPGGKDVDATIVYGVNHDVLKAEHTVISNASCTTNCLAPLVKPLNDKIGLETGLMTTIHAYTNDQVLTDVYHEDLRRARSATHSQIPTKTGAAAAVGLVLPELNGKLDGYAIRVPTINVSIVDLSFIAKRDTTAAEVNAIMKEASEGALKGILGYNEAPLVSIDFNHNPASSTFDATLTKVSGRLVKVSSWYDNEWGFSNRMLDTAIALANAK | soluble
